One molecule from patent publication US20050143285A1 can be followed below.

Test [1] deals with T1, Lymnaea stagnalis acetylcholine binding protein (AChBP) (Lymnaea stagnalis), P58154. The test is described as follows: stopped-flow spectrofluorimetry, excitation 280 nm, emission above 305 nm.
Test [2] deals with T2, Aplysia californica acetylcholine binding protein (AChBP) (Aplysia californica).
T2 chain: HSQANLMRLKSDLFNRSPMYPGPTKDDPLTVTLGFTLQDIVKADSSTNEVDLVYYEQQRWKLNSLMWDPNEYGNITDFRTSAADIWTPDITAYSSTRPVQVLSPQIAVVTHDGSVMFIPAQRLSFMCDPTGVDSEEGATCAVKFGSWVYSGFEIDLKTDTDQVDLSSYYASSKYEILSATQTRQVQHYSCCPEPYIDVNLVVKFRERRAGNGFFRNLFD
Described as above.

Test [3] addresses T1, Lymnaea stagnalis acetylcholine binding ….
Test [4] concerns the target T2, Aplysia californica acetylcholine ….
The target of test [5] is T1, Lymnaea stagnalis acetylcholine binding …. The test is described as follows: stopped-flow spectrofluorimetry.
The target in test [6] is T2, Aplysia californica acetylcholine ….
Test [7] deals with T1, Lymnaea stagnalis acetylcholine binding …. Put plainly: ratio of Kd on Lymnaea AChBP to Kd on Aplysia AChBP.
The target of test [8] is T2, Aplysia californica acetylcholine ….

T1 sequence (P58154 20-229): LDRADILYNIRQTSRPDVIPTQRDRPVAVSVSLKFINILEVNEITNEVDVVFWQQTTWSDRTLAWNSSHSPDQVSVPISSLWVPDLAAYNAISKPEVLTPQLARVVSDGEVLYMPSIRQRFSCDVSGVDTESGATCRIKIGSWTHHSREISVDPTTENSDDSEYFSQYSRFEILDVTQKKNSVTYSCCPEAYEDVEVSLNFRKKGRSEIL

Regarding GCCSDPRCAWRC (modifications not checked) [α-conotoxin ImI, P50983 5-16], the results for the kon in test [1] and in test [2] were 1.4e+06 M⁻¹ s⁻¹ and 1.6e+07 M⁻¹ s⁻¹, respectively. Moreover, the values for the Kd in test [3] and in test [4] were 14 µM and 0.00088 µM, respectively. The koff came out at 19 s⁻¹ in test [5] and 0.01 s⁻¹ in test [8]. The molecule also came in with a fold greater affinity than for L-AChBP in test [6] of more than 10000 fold. Also, the Kd Ratio L/A in test [7] came to 16000.

The kon is the rate constant with which the complex forms. High values mean fast association, low ones slow association. What is called Kd is the free concentration of one partner at which half of the binding sites on the other are occupied at equilibrium, for simple one-to-one binding. A high value points to lower affinity. A word on the koff: it is the first-order rate constant of dissociation. Higher therefore signals a short-lived complex.
